The values that follow come from patent publication US20240139295A1 (priority 2021, published 2024).

Assay [1] has as its system Gram-negative bacteria. The assay is described as follows: Activity comparison of P104 and LysP53 in vitro, overall. In kind it is cell-based. Conditions: stable phase, 37° C., 1 h. The method, then:
(§1) A variety of strains including Acinetobacter baumannii, Pseudomonas aeruginosa, Klebsiella pneumoniae and Escherichia coli are cultured to stable phase (OD600nm between 1.2-1.4), respectively, and each precipitate is collected by centrifugation at 4° C., rinsed once with Tris-HCl buffer, and then the rinsed precipitate is dissolved in Tris-HCl buffer to obtain the bacterial solution. At the same time, mixed solutions including the same amount of the buffer and the above bacterial solution are prepared and used as the negative controls. After incubation at 37° C. for 1 h, the number (CFU) of the bacteria in the solutions are counted by plating on agar plates.

For assay [2], the system named is A. baumannii WHG40137. Nature of the assay: Time dependence of lysin LysP53 lysing A. baumannii WHG40137 (CFU plate count). Conditions: 100 μg/mL LysP53, logarithmic phase, 37° C. The assay is classed as cell-based, Acinetobacter baumannii. On the procedure: Acinetobacter baumannii (A. baumannii) WHG40137 is cultured to logarithmic phase (OD600nm between 0.4-0.6), and the precipitate is collected by low-temperature centrifugation, rinsed once with Tris-hydrochloride (Tris-HCl) buffer, and then the rinsed precipitate is dissolved in the buffer to obtain an A. baumannii WHG40137 bacterial solution. The lysin LysP53 prepared in the embodiment 2 is added in and mixed with the A. baumannii WHG40137 bacterial solution to make the final concentration of the lysin LysP53 to be 100 micrograms per milliliter (μg/mL). At the same time, a mixed solution including the same amount of the buffer and the above bacterial solution is prepared and used as negative control. During incubation of the solutions at 37° C., aliquots were sampled, respectively, at different times and used to count the number (colony-forming unit abbreviated as CFU) of the bacteria in the solutions by plating on agar plates.

In assay [3] the test system is Klebsiella pneumoniae. The assay is described as follows: Lysis spectrum of LysP53 in vitro (CFU plate count). In kind it is cell-based. Conditions: 100 μg/mL LysP53, stable phase, 37° C., 1 h. On the procedure: (§2) A variety of strains including Acinetobacter baumannii, Pseudomonas aeruginosa, Klebsiella pneumoniae and Escherichia coli are cultured to stable phase (OD600nm between 1.2-1.4), respectively, and each precipitate is collected by centrifugation at 4° C., rinsed once with Tris-HCl buffer, and then the rinsed precipitate is dissolved in Tris-HCl buffer to obtain the bacterial solution. The lysin LysP53 prepared in the embodiment 2 is taken and mixed with the above bacterial solutions, respectively, to make the final concentration of the lysin LysP53 to be 100 μg/mL. At the same time, mixed solutions including the same amount of the buffer and each of the above bacterial solutions are prepared and used as negative controls. After incubation at 37° C. for 1 h, the number (CFU) of the bacteria in the solutions are counted by plating on agar plates.

Assay [4] deals with Pseudomonas aeruginosa. The assay is described as above. To be noted: 100 μg/mL LysP53, stable phase, 37° C., 1 h. In kind it is cell-based. On the procedure:
as §2

For assay [5], the system named is Acinetobacter baumannii. The description is as above. Conditions: 100 μg/mL LysP53, stable phase, 37° C., 1 h. In kind it is cell-based. On the procedure: as §2
Assay [6] deals with Escherichia coli. The assay is described as above. In kind it is cell-based. To be noted: 100 μg/mL LysP53, stable phase, 37° C., 1 h. The method, then: as §2
Assay [7] has as its system Gram-negative bacteria. The assay is described as follows: Lysis spectrum of LysP53 in vitro, overall. In kind it is cell-based. Conditions: 100 μg/mL LysP53, stable phase, 37° C., 1 h. The method, then:
as §2

The test system of assay [8] is Klebsiella pneumoniae. The assay is described as follows: Activity comparison of P104 and LysP53 in vitro (CFU plate count). The assay is classed as cell-based. Conditions: stable phase, 37° C., 1 h. On the procedure:
as §1

For assay [9], the system named is Pseudomonas aeruginosa. Described as above. To be noted: stable phase, 37° C., 1 h. In kind it is cell-based. On the procedure:
as §1

Assay [10] has as its system Acinetobacter baumannii. The assay is described as above. In kind it is cell-based. To be noted: stable phase, 37° C., 1 h. On the procedure: as §1
Assay [11] concerns Escherichia coli. Described as above. In kind it is cell-based. To be noted: stable phase, 37° C., 1 h. The method, then: as §1
For assay [12], the system named is A. baumannii WHG40137. Nature of the assay: Lytic activity of LysP53 against A. baumannii WHG40137 at different growth periods (CFU plate count). In kind it is cell-based, Acinetobacter baumannii. Conditions: 100 μg/mL LysP53, 37° C., 1 h; logarithmic phase (OD600 0.4-0.6) vs stable phase (OD600 1.2-1.4). On the procedure: A. baumannii WHG40137 is cultured to logarithmic phase (OD600nm between 0.4-0.6) or stable phase (OD600nm between 1.2-1.4) first. Then, the precipitates are collected by centrifugation at 4° C., rinsed once with Tris-HCl buffer, and dissolved in Tris-HCL buffer to obtain an A. baumannii WHG40137 bacterial solution. Finally, the lysin LysP53 prepared in the embodiment 2 is taken and mixed with the A. baumannii WHG40137 bacterial solution to make the final concentration of the lysin LysP53 to be 100 μg/mL. At the same time, a mixed solution including the same amount of the buffer and the above bacterial solution is prepared and used as the negative control. After incubation at 37° C. for 1 h, the number (CFU) of the bacteria in the solutions are counted by plating on agar plates.

Assay [13] has as its system A. baumannii WHG40137. Nature of the assay: Effect of pH on lytic activity of LysP53 against A. baumannii WHG40137 (CFU plate count). The assay is classed as cell-based, Acinetobacter baumannii. Conditions: 100 μg/mL LysP53, logarithmic phase, 1 h. On the procedure: A. baumannii WHG40137 is cultured to logarithmic phase (OD600nm between 0.4-0.6) first. Then, the precipitates are collected by centrifugation at 4° C., rinsed once with Tris-HCl buffer, and dissolved in Tris-HCL buffer with different pH values (pH 5-8) to obtain A. baumannii WHG40137 bacterial solutions. Finally, the lysin LysP53 prepared in the embodiment 2 is taken and mixed with the A. baumannii WHG40137 bacterial solutions to make the final concentration of the lysin LysP53 to be 100 μg/mL. At the same time, mixed solutions including the same amount of the buffer and the above bacterial solution are prepared and used as the negative controls. After incubation at 37° C. for 1 h, the number (CFU) of the bacteria in the solutions are counted by plating on agar plates.

The test system of assay [14] is A. baumannii WHG40137. The assay is described as follows: Lytic activity of LysP53 against A. baumannii WHG40137 on burned skin surfaces of mice. The assay is classed as in vivo, Acinetobacter baumannii. To be noted: female BALB/c mice, burn site infected 24 h, 14 μg LysP53 topical vs 4 grams (g) minocycline, 4 h after treatment. The method, then:
Female BALB/c mice aged 6-8 weeks are anesthetized by intraperitoneal injection of 40 milligrams per kilogram (mg/kg) pentobarbital (also referred to as pentobarbitone), and then shaved with an electric razor to remove 2 square centimeters (cm 2) of hair on the back. Partial burn can be achieved by exposing the naked skin to water at 65° C. for 12 s. 10 μL, of A. baumannii WHG40137 with a concentration of 10^8 CFU/mL is taken and inoculated at the burn site, and after colonization for 24 h, the mice are randomly divided into three groups. In the first group, there are 12 mice, and 14 μg of the lysin LysP53 is applied to the burn site of each mouse. In the second group, there are 12 mice, and 4 grams (g) minocycline is applied to the burn site of each mouse. In the third group, there are 9 mice, and the same amount of buffer solution is applied to the burn site of each mouse. Four hours after treatment, the mice are euthanatized and the infected skin is excised, infiltrated with 1 mL of phosphate buffered saline with Tween® 20 (PBST) and 0.1% Triton X-100 for 2 min, and homogenized with a tissue cell disruptor (NewZongKe, Wuhan, China). Finally, an aliquot of the suspension is diluted and plated to an LB plate containing 4 μg/mL of gentamicin and 2 μg/mL of meropenem, and the number of the colonies are counted after overnight culture.

The test system of assay [15] is A. baumannii WHG40137. The assay is described as follows: Effect of EDTA concentration on lytic activity of LysP53 against A. baumannii WHG40137 (CFU plate count). The assay is classed as cell-based, Acinetobacter baumannii. To be noted: 100 μg/mL LysP53, stable phase, EDTA 0, 62.5, 125, 250, 500 μM, 37° C., 1 h. The method, then: A. baumannii WHG40137 is cultured to stable phase (OD600nm between 1.2-1.4), and the precipitate is collected by centrifugation at 4° C., rinsed once with a Tris-HCl buffer, and is dissolved in Tris-HCl buffer to obtain an A. baumannii WHG40137 bacterial solution. The lysin LysP53 prepared in the embodiment 2 is taken and mixed with the A. baumannii WHG40137 bacterial solution containing EDTA at different concentrations (0 μM, 62.5 μM, 125 μM, 250 μM, and 500 μM) to make the final concentration of the lysin LysP53 to be 100 μg/mL. At the same time, mixed solutions including the same amount of the Tris-HCl buffer solution and each of the above bacterial solutions are used as negative controls. After incubation at 37° C. for 1 h, the number (CFU) of the bacteria in the solutions are counted by plating on agar plates.

In the case of “P104: antibacterial peptide found in the genome of bacteriophage P53, amino acid sequence SEQ ID NO: 1, chemically synthesized (MTMTTKRIFEHMRPNLTDSQVQALYKLMEKGAD)”, the “lytic activity against Gram-negative bacteria” value in assay [1] was “broad-spectrum lytic activity”.

B1: LysP53: lysin from the genome of bacteriophage P53, amino acid sequence SEQ ID NO: 2, includes P104, about 24 kDa, expressed in E. coli (protein)
chain: MTMTTKRIFEHMRPNLTDSQVQALYKLMEKGADLDTIAQFAGVSPLVSTADVKQPSGFKFSQTSLKRLEGVNPKLVQVVNRALEISKEDFMVIEGVRTKESAWANWGKGRTAAQCQAAGVPTKYAQPSLAKVTWLTDPLKSKHMTGHAVDLAPIPLDWNDLKRFDLMAQAMFQASAELNIPIRWGADWDNDGVFREKGETDSPHFELAG
For B1, the “lytic activity against Gram-negative bacteria” value in assay [1] is listed as “broad-spectrum lytic activity”. Moreover, the “lytic activity against Acinetobacter baumannii WHG40137” value in assay [2] is “good lytic activity”. Besides, in assay [2] (Tris-HCl buffer, 15 min), the “concentration of Acinetobacter baumannii WHG40137 after incubation for 15 min” value is given as “greatly reduced”. Also, the “concentration of Acinetobacter baumannii WHG40137 after incubation for 1 h” value in assay [2] (Tris-HCl buffer, 1 h) is “about 10 CFU/mL”. The “lytic effect on Klebsiella pneumoniae” value in [3] is recorded as “good lytic effect”. In addition, the “lytic effect on Pseudomonas aeruginosa” value in assay [4] is listed as “good lytic effect”. Also, the “lytic effect on a variety of Acinetobacter baumannii strains” value in assay [5] is “good lytic effect”. Besides, in assay [6], the “lytic effect on Escherichia coli” value is reported as “good lytic effect”. Moreover, the “spectrum in lysing Gram-negative bacteria” value in assay [7] is reported as “broad spectrum”. For the same molecule, the “activity against Klebsiella pneumoniae, LysP53 compared with P104” value in assay [8] is listed as “comparable activity”. Moreover, the “activity against Pseudomonas aeruginosa, LysP53 compared with P104” value in assay [9] is “comparable activity”. For the same molecule, in assay [10], the “lytic activity against Acinetobacter baumannii, LysP53 compared with P104” value is “stronger lytic activity”. The “activity against Escherichia coli, LysP53 compared with P104” value in assay [11] is listed as “comparable activity”. The “lytic activity in logarithmic phase versus stable phase” value in assay [12] was “higher lytic activity”. Besides, the “lytic activity in pH range 5.0-6.5 versus pH range 7.0-8.0” value in [13] (37° C.) is reported as “better lytic activity”. In addition, the “concentration of the bacteria after incubation with LysP53 at pH 5.0-6.5” value in assay [13] (pH 5.0-6.5, 37° C.) is recorded as “about 10 CFU/mL”. In [14], the “lytic activity on mouse skin compared with minocycline” value is “higher lytic activity”. The “lytic activity with increasing EDTA concentration” value in assay [15] was “gradually higher”.
